Assay results: patent US20070020687A1 (CYTOSKELETON, published 2007)

B6: WASP effector-GBD peptide, histidine tagged, with engineered carboxy terminal cysteine (other, human)
chain: DIQNPDITSSRYRGLPAPGPSPADKKRSGKKKISKADIGAPSGFKHVSHVGWDPQNGFDVNNLDPDLRSLFSRAGISEAQLTDAETSKLIYDFIEDQGGLEAVRQEMRRQEPLPPPPPPSRC
notes: range 201-321; Linked covalently to maleimide plates; also called WASP-GBD; WASP-His; not shown: N-terminal histidine tag of vector pRSET-A
B7: constitutively active recombinant Cdc42, glutamine 61 to leucine, histidine tagged (enzyme)
chain: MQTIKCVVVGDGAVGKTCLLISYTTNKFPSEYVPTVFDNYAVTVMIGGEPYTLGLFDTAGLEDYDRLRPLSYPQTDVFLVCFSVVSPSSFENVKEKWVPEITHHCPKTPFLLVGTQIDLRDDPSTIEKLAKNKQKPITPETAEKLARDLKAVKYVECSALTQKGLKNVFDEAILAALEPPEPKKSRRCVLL
notes: Bought protein; also called Cdc42 (61L); constitutively active Cdc42; not shown: histidine tag

Assays:
[1] = target: T1, constitutively active recombinant RhoA, glutamine 63 to leucine, histidine tagged (Homo sapiens (Human), UniProt P61586 1-193, limits assumed); experiment: G-LISA with rhotekin-Cys effector-GBD on plate, data not shown
T1 construct: Bought protein; unable to hydrolyse GTP; also called RhoA (63L); R63; not shown: histidine tag

[2] = target: T2, endogenous Rac1 of human platelet extract loaded with GTPγS (human, UniProt P63000 1-189); experiment: Rac1 G-LISA on POSH-GBD maleimide plate, GDP or GTPγS loaded platelet extract, absorbance 490 nm
Protocol: (§1) Active Rho protein (typically 7-15 μg total cell lysate or 1-5 ng of constitutively active recombinant protein) were either added directly to the effector bound G-LISA plate (Rac1 and Cdc42 G-LISAs) or diluted with an equal volume of Binding Buffer (20% PEG 8000, Sigma, St. Louis, Mo.) prior to adding to effector bound plates (RhoA G-LISA). The reactions were incubated for 30 minutes at 4° .C on a microtiter titer plate shaker after which wells were washed once with 200 μl of PBST (PBS pH 7.2, 0.05% Tween-20) and immediately treated with 200 μl of Antigen Presenting Buffer (1% trichloroacetic acid (TCA)) for 2-5 minutes at room temperature. […] For RhoA and Rac1 reactions goat anti-mouse secondary at 2 μg/ml is used, for RhoA,B,C reactions donkey anti-chicken secondary at 0.5 μg/ml is used, for Cdc42 reactions goat anti-sheep secondary antibody is used at 0.5 μg/ml. After three washes each of 200 μl PBST the activated Rho proteins are detected using absorbance or luminescence detection as described below.

[3] = target: T3, constitutively active recombinant Rac1, glutamine 61 to leucine, histidine tagged (Homo sapiens (Human), UniProt P63000 1-192); experiment: Rac1 G-LISA on POSH plate with 2 minute Antigen Presenting Buffer (1% TCA), absorbance 490 nm
Protocol: The reactions were incubated for 30 minutes at 4° C. on a microtiter titer plate shaker after which wells were washed once with 200 μl of PBST (PBS pH 7.2, 0.05% Tween-20) and immediately treated with 200 μl of Antigen Presenting Buffer (1% trichloroacetic acid (TCA)) for 2-5 minutes at room temperature. Wells were then washed three times with 200 μl each of PBST and primary Rac1 antibody was added at 1 μg/ml and incubated at room temperature for 45 minutes. Wells were washed three times with 200 μl each of PBST and incubated with anti-mouse secondary antibody for 45 minutes at room temperature. After three washes each of 200 μl PBST, the activated Rho proteins were detected using absorbance detection. Absorbance was measured at OD₄₉₀ in a spectrophotometer (SpectraMax 250, Molecular Devices) after addition of 50 μl of OPD substrate (Sigma Catalog # P9187) for 15 minutes at 37° C. followed by addition of 50 μl of stop buffer (1M sulfuric acid).
Referring to FIG. 5B, lysis buffer only (Blank) or 5 ng of Rac1 (61L) were subjected to Rac1 G-LISA assay as described in the materials and methods except that the assays were performed either with or without Antigen Presenting Buffer treatment (1% TCA or No APB respectively) Rac1 signal was detected by absorbance at 490 nm as described in the materials and methods.

[4] = target: T3, constitutively active recombinant Rac1, …; experiment: Rac1 G-LISA, POSH-GBD on maleimide plate, detection with anti-Rac1 GL06, absorbance 490 nm
Protocol: as §1

[5] = target: active Rac1, sample not stated (Homo sapiens (Human), UniProt P63000 1-189); experiment: G-LISA with and without TCA Antigen Presenting Buffer
[6] = target: T3, constitutively active recombinant Rac1, …; experiment: competition in Rac1: POSH G-LISA, 5 ng Rac1 (61L), POSH-GBD maleimide plate, reference PAK-GBD-GST
[7] = target: T3, constitutively active recombinant Rac1, …; experiment: competition in Rac1: POSH G-LISA, 5 ng Rac1 (61L), POSH-GBD maleimide plate, ROCK-GST as negative control inhibitor
[8] = target: T4, endogenous RhoA of human platelet extract loaded with GTPγS (human, UniProt P61586 1-190); experiment: RhoA G-LISA on ROCK plate, loaded platelet extracts, treatment with 10% TCA for 2 minutes, detection with clone 384, luminescence
T4 construct: also called active RhoA (GTPγS); GTPγS RhoA
Protocol: Platelet cell lysates loaded with GTPγS or GDP nucleotides (10 μg total cell lysate per assay) were diluted with an equal volume of Binding Buffer (20% PEG 8000, Sigma, St. Louis, Mo.) prior to adding to ROCK effector bound plates. The reactions were incubated for 30 minutes at 4° C. on a microtiter titer plate shaker after which wells were washed once with 200 μl of PBST (PBS pH 7.2, 0.05% Tween-20) and immediately treated with one of the following chemical/physical treatments: microwaving for 3 minutes in the presence of 200 μl PBS; microwaving for 3 minutes dry; microwaving for 3 minutes in the presence of 200 μl of 8M urea; 200 μl methanol for 2 minutes; 200 pl ethanol for 2 minutes; 200 μl of 0.5% SDS for 2 minutes, 200 μl of 10% trichloroacetic acid (TCA) for 2 minutes at room temperature. […] After three washes each of 200 μl PBST, the activated Rho proteins were detected using luminescence detection. Luminescence was measured in a SpectroFluor Plus (Techan Inc.) after addition of 50 μl of lumigen reagent (Lumigen Inc., Catalog # PSA-100).
After extract incubation, the plate was treated with MW+PBS, MW/Dry, MW/8 M urea, methanol, ethanol, 0.5% SDS, 10% TCA or no treatment followed by antibody incubation and luminescence detection. […]

[9] = target: T4, endogenous RhoA of human platelet …; experiment: RhoA G-LISA on ROCK-GBD maleimide plate, 15 µg GDP or GTPγS loaded platelet extract, Binding Buffer, luminometry
Protocol: as §1

[10] = target: T1, constitutively active recombinant RhoA, …; experiment: RhoA G-LISA, ROCK1-GBD on maleimide plate, detection with anti-RhoA clone 384, luminometry
Protocol: as §1, with “The” for “Active Rho protein (typically 7-15 μg total cell lysate or 1-5 ng of constitutively active recombinant protein) were either added directly to the effector bound G-LISA plate (Rac1 and Cdc42 G-LISAs) or diluted with an equal volume of Binding Buffer (20% PEG 8000, Sigma, St. Louis, Mo.) prior to adding to effector bound plates (RhoA G-LISA). The”

[11] = target: active RhoA, sample not stated (Homo sapiens (Human), UniProt P61586 1-190, limits assumed); experiment: G-LISA with and without TCA Antigen Presenting Buffer
[12] = target: T3, constitutively active recombinant Rac1, …; experiment: Rac1 G-LISA, PAK-GBD-GST on glutathione plate, absorbance 490 nm
Protocol: as §1
(§2) Plates were incubated at room temperature for 1 hour. Plates were washed twice in PBS and blocked by addition of 0.1% BSA in PBS pH 7.2 for 1 hour at room temperature.

[13] = target: T3, constitutively active recombinant Rac1, …; experiment: competition in Rac1: POSH G-LISA, 5 ng Rac1 (61L), POSH-GBD maleimide plate, PAK-GBD-GST at 0 to 10 µM
[14] = target: T2, endogenous Rac1 of human platelet …; experiment: Rac1 G-LISA, PAK-GBD-GST on glutathione plate, loaded platelet extracts, absorbance 490 nm
Protocol: For RhoA and Rac1 reactions goat anti-mouse secondary at 2 μg/ml is used, for RhoA,B,C reactions donkey anti-chicken secondary at 0.5 μg/ml is used, for Cdc42 reactions goat anti-sheep secondary antibody is used at 0.5 μg/ml. After three washes each of 200 μl PBST the activated Rho proteins are detected using absorbance or luminescence detection as described below.
as §2

[15] = target: B7; experiment: Cdc42 G-LISA, WASP-GBD on maleimide plate, detection with anti-Cdc42 ACD02, absorbance 490 nm
Protocol: as §1
(§3) Referring to FIG. 2C, lysis buffer only (Blank), 5 ng of Cdc42 (61L) or Rac1 (61L) were subjected to a Cdc42 G-LISA assay as detailed in materials and methods (Example 2), and Cdc42 signal was detected by absorbance at 490 nm as described in materials and methods (Example 2).

[16] = target: B6; experiment: G-LISA on maleimide plates (FIG. 2)
Protocol: as §1, §3

T1 sequence (P61586 whole entry Q63L): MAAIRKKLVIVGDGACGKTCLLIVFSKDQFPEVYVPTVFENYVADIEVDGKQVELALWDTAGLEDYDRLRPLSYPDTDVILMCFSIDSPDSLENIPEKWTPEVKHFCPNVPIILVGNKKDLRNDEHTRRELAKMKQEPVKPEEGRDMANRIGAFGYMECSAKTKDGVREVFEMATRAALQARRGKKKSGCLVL
T4 sequence (P61586 1-190 limits assumed): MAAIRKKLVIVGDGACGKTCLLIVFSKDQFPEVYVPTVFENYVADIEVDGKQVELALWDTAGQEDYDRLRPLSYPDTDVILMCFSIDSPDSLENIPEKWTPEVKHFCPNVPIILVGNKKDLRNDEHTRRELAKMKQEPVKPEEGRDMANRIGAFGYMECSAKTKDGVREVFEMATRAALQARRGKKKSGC
Sequence of active RhoA, sample not stated (P61586 1-190 limits assumed): as above

B1: rhotekin-Cys effector-GBD as tested in the G-LISA (other, mouse)
chain: ILEDLNMLYIRQMALSLEDTELQRKLDHEIRMRDGAEKLLAALSQREQALEATKSLLVSNSRILSYMGELQRRKEAQVLEKTGC
notes: range 7-89; also called modified effector-GBD; Rhotekin-Cys-no tag
signal fold above background [1]: 6 fold

B2: POSH effector-GBD peptide, histidine tagged (other)
chain: KHSDTKKNTKKRHSFTSLTMANKSSQASQNRHSMEISPPVLISSSNPTAAARISELSGLSCSAPSQVHISTTG
notes: range 291-363; Linked to maleimide plates through the naturally occurring cysteine at position 351; also called POSH-GBD; POSH-His; not shown: N-terminal histidine tag of vector pRSET-A
fold signal of active (GTPγS) Rac1 over inactive (GDP) Rac1 [2]: 30 fold | signal fold above background [3]: 7 fold | signal fold above background [4]: 9 fold | loss of signal in the absence of TCA [5]: > 80%

B3: ROCK-GST peptide (other)
chain: EAEQYFSTLYKTQVKELKEEIEEKNRENLKKIQELQNEKETLATQLDLAETKAESEQLARGLLEEQYFELTQESKKAASRNRQEITDKDHTVSRLEEANSMLTKDIEILRRENEELTEKMKKAEEEYKLEKEEEISNLKAAFEKNINTERTLKTQAVNKLAEIMNRKDFKIDRKKANT
notes: domain: GBD; a GST fusion of ROCK is described nowhere else; also called ROCK-GBD; RhoA effector ROCK-GBD; not shown: Glutathione S transferase tag
fold IC50 against PAK [6]: ~80 fold | IC50 [7]: 8 µM

B4: ROCK1 effector-GBD peptide, histidine tagged, with engineered carboxy terminal cysteine (other, human)
chain: EAEQYFSTLYKTQVKELKEEIEEKNRENLKKIQELQNEKETLATQLDLAETKAESEQLARGLLEEQYFELTQESKKAASRNRQEITDKDHTVSRLEEANSMLTKDIEILRRENEELTEKMKKAEEEYKLEKEEEISNLKAAFEKNINTERTLKTQAVNKLAEIMNRKDFKIDRKKANTC
notes: range 847-1024; Linked covalently to maleimide plates through the C-terminal cysteine; also called ROCK1-GBD; ROCK-GBD; not shown: N-terminal histidine tag of vector pRSET-A
fold signal of GTPγS RhoA over GDP RhoA [8]: ~8 fold | fold signal of active (GTPγS) RhoA over inactive (GDP) RhoA [9]: 7 fold | signal fold above background (buffer only) [10]: 6 fold | loss of signal in the absence of TCA [11]: > 80%

B5: PAK-GBD-GST peptide (other)
chain: KEKERPEISLPSDFEHTIHVGFDAVTGEFTGMPEQWARLLQTSNITKSEQKKNPQAVLDVLEFYNSKKTSNSQKYMSFTDKSAEC
notes: range 68-151; also called PAK1-GST; PAK-GST; not shown: Glutathione S transferase tag of vector pGEX-4T with thrombin site, N-terminal
signal fold above background (buffer only) [12]: 8 fold | IC50 [13]: ~0.1 µM | loss of signal in the absence of TCA [5]: > 80% | fold signal of GTPγS (active) over GDP (inactive) loaded platelet extract [14]: 8 fold

B6
signal fold above background [15]: 5 fold

B7
binding result [16]: binds
